Test results published in the Immune Epitope Database (IEDB).

Legend:
HLA-A*01:01 = assay: IEDB peptide-MHC binding, purified MHC/direct/fluorescence; filed as Kd, often an IC50 or EC50 that approximates it; ≥ and ≤ were set here for values at or beyond the usual limits of such assays
HLA-A*02:01 [1] = assay: as above
HLA-A*02:50 [2] = assay: as above; details: source organism: Francisella tularensis subsp. tularensis FSC033
HLA-A*29:02 = assay: as above; details: source organism: Francisella tularensis subsp. tularensis FSC033
HLA-A*30:01 [3] = assay: as above; details: source organism: Francisella tularensis subsp. tularensis FSC033
HLA-A*69:01 [4] = assay: as above
HLA-B*07:02 = assay: as above
HLA-B*15:01 = assay: as above
HLA-B*18:01 = assay: as above; details: source organism: Francisella tularensis subsp. tularensis FSC033
HLA-B*40:01 = assay: as above
HLA-B*44:02 = assay: as above
HLA-B*51:01 = assay: as above; details: source organism: Francisella tularensis subsp. tularensis FSC033
HLA-B*57:01 = assay: as above; details: source organism: Francisella tularensis subsp. tularensis FSC033
HLA-B*58:01 = assay: as above
HLA-A*03:01 [5] = assay: as above
HLA-A*11:01 [6] = assay: as above
HLA-A*26:01 [7] = assay: as above; details: source organism: Bacillus licheniformis
HLA-A*31:01 [8] = assay: as above; details: source organism: Bacillus licheniformis
HLA-B*08:01 [9] = assay: as above; details: source organism: Bacillus licheniformis
HLA-B*27:05 = assay: as above
HLA-B*15:02 = assay: IEDB peptide-MHC binding, purified MHC/competitive/fluorescence; filed as Kd, often an IC50 or EC50 that approximates it; ≥ and ≤ were set here for values at or beyond the usual limits of such assays; details: source organism: Bacillus licheniformis
HLA-A*02:01 [10] = assay: as above; details: source organism: Human immunodeficiency virus 1
HLA-A*02:03 [11] = assay: as above; details: source organism: Human immunodeficiency virus 1
HLA-A*02:06 [12] = assay: as above; details: source organism: Human immunodeficiency virus 1
HLA-A*03:01 [13] = assay: as above; details: source organism: Human immunodeficiency virus 1
HLA-A*11:01 [14] = assay: as above; details: source organism: Human immunodeficiency virus 1
HLA-A*26:01 [15] = assay: as above; details: source organism: Human immunodeficiency virus 1
HLA-A*26:03 = assay: as above; details: source organism: Human immunodeficiency virus 1
HLA-A*30:01 [16] = assay: as above; details: source organism: Human immunodeficiency virus 1
HLA-A*31:01 [17] = assay: as above; details: source organism: Human immunodeficiency virus 1
HLA-A*68:02 = assay: as above; details: source organism: Human immunodeficiency virus 1
HLA-A*69:01 [18] = assay: as above; details: source organism: Human immunodeficiency virus 1
HLA-B*08:01 [19] = assay: as above; details: source organism: Human immunodeficiency virus 1
HLA-B*08:02 = assay: as above; details: source organism: Human immunodeficiency virus 1
HLA-A*02:03 [20] = assay: IEDB peptide-MHC binding, purified MHC/direct/fluorescence; filed as Kd, often an IC50 or EC50 that approximates it; ≥ and ≤ were set here for values at or beyond the usual limits of such assays; details: source organism: Coxiella burnetii Q321
HLA-A*02:06 [21] = assay: as above; details: source organism: Coxiella burnetii Q321
HLA-A*02:11 = assay: as above; details: source organism: Coxiella burnetii Q321
HLA-A*02:12 = assay: as above; details: source organism: Coxiella burnetii Q321
HLA-A*02:19 = assay: as above; details: source organism: Coxiella burnetii Q321
HLA-A*24:02 = assay: as above; details: source organism: Coxiella burnetii
HLA-C*08:02 = assay: as above; details: source organism: Coxiella burnetii RSA 493
HLA-C*12:03 = assay: as above; details: source organism: Coxiella burnetii RSA 493
HLA-A*02:50 [22] = assay: IEDB peptide-MHC binding, purified MHC/competitive/fluorescence; filed as Kd, often an IC50 or EC50 that approximates it; ≥ and ≤ were set here for values at or beyond the usual limits of such assays; details: source organism: Coxiella burnetii RSA 493
[23] = source organism: Francisella tularensis subsp. tularensis FSC033
[24] = source organism: Francisella tularensis subsp. holarctica OSU18
[25] = source organism: Bacillus licheniformis
[26] = source organism: Coxiella burnetii

## ETLDVFGPI
HLA-A*01:01; [23]
  Kd: ≥ 20 µM
HLA-A*02:01 [1]; [24]
  Kd: ≥ 20 µM
HLA-A*02:50 [2]
  Kd: ≥ 20 µM
HLA-A*29:02
  Kd: ≥ 20 µM
HLA-A*30:01 [3]
  Kd: ≥ 20 µM
HLA-A*69:01 [4]; [24]
  Kd: 0.0004 µM
HLA-B*07:02; [23]
  Kd: ≥ 20 µM
HLA-B*15:01; [23]
  Kd: ≥ 20 µM
HLA-B*18:01
  Kd: ≥ 20 µM
HLA-B*40:01; [23]
  Kd: ≥ 20 µM
HLA-B*44:02; [23]
  Kd: ≥ 20 µM
HLA-B*51:01
  Kd: ≥ 20 µM
HLA-B*57:01
  Kd: ≥ 20 µM
HLA-B*58:01; [23]
  Kd: ≥ 20 µM

## VQIPEKKCF
HLA-A*01:01; [25]
  Kd: ≥ 20 µM
HLA-A*02:01 [1]; [25]
  Kd: ≥ 20 µM
HLA-A*03:01 [5]; [25]
  Kd: ≥ 20 µM
HLA-A*11:01 [6]; [25]
  Kd: ≥ 20 µM
HLA-A*26:01 [7]
  Kd: ≥ 20 µM
HLA-A*31:01 [8]
  Kd: ≥ 20 µM
HLA-A*69:01 [4]; [25]
  Kd: ≥ 20 µM
HLA-B*07:02; [25]
  Kd: ≥ 20 µM
HLA-B*08:01 [9]
  Kd: ≥ 20 µM
HLA-B*15:01; [25]
  Kd: 0.453 µM
HLA-B*27:05; [25]
  Kd: ≥ 20 µM
HLA-B*40:01; [25]
  Kd: ≥ 20 µM
HLA-B*58:01; [25]
  Kd: ≥ 20 µM
HLA-B*15:02
  Kd: ≥ 20 µM

## VLYCVHQRV
HLA-A*02:01 [10]
  Kd: 0.0098 µM
HLA-A*02:03 [11]
  Kd: 0.0047 µM
HLA-A*02:06 [12]
  Kd: 0.0005 µM
HLA-A*03:01 [13]
  Kd: ≥ 20 µM
HLA-A*11:01 [14]
  Kd: 10.7 µM
HLA-A*26:01 [15]
  Kd: ≥ 20 µM
HLA-A*26:03
  Kd: ≥ 20 µM
HLA-A*30:01 [16]
  Kd: 1.86 µM
HLA-A*31:01 [17]
  Kd: 11.9 µM
HLA-A*68:02
  Kd: 0.223 µM
HLA-A*69:01 [18]
  Kd: ≥ 20 µM
HLA-B*08:01 [19]
  Kd: ≥ 20 µM
HLA-B*08:02
  Kd: ≥ 20 µM

## YMHGSIHEV
HLA-A*01:01; [26]
  Kd: ≥ 20 µM
HLA-A*02:01 [1]; [26]
  Kd: 0.057 µM
HLA-A*02:03 [20]
  Kd: 0.002 µM
HLA-A*02:06 [21]
  Kd: 0.002 µM
HLA-A*02:11
  Kd: 0.002 µM
HLA-A*02:12
  Kd: 0.007 µM
HLA-A*02:19
  Kd: 0.007 µM
HLA-A*03:01 [5]; [26]
  Kd: ≥ 20 µM
HLA-A*11:01 [6]; [26]
  Kd: ≥ 20 µM
HLA-A*24:02
  Kd: ≥ 20 µM
HLA-A*69:01 [4]; [26]
  Kd: 0.0407 µM
HLA-B*07:02; [26]
  Kd: ≥ 20 µM
HLA-B*15:01; [26]
  Kd: 0.118 µM
HLA-B*27:05; [26]
  Kd: ≥ 20 µM
HLA-B*40:01; [26]
  Kd: ≥ 20 µM
HLA-B*44:02; [26]
  Kd: ≥ 20 µM
HLA-B*58:01; [26]
  Kd: ≥ 20 µM
HLA-C*08:02
  Kd: ≥ 20 µM
HLA-C*12:03
  Kd: 0.026 µM
HLA-A*02:50 [22]
  Kd: ≤ 0.0001 µM
